Laboratory results: paper doi:10.1101/2021.09.07.459239

Legend:
[1] = molecular target: CD80 cytosolic tail peptide (20-mer); experiment: ELISA
[2] = molecular target: CD86 cytosolic tail peptide (20-mer); experiment: ELISA
[3] = molecular target: rF2-Nef protein (HIV-1 Subtype C), full length wild type (HIV-1 subtype C (F2 isolate)); experiment: MST

For “rF2-Nef protein (HIV-1 Subtype C), full length wild type (natural protein)”, the fold increase of ELISA signal over CD74 peptide or no-peptide wells [1] was 4 fold and the fold increase of ELISA signal over CD74 peptide or no-peptide wells [2] was 4 fold.

PRCRERRRNERLRRESVRPV [CD80 cytosolic tail peptide (20-mer)] gave a Kd [3] of 27 µM.

For LWKWKKKKRPRNSYKCGTNT [CD86 cytosolic tail peptide (20-mer)], the Kd [3] was 0.112 µM.
